Test results reported in the supplement of paper PMC10567573.

B1: NEK8 (parent)
chain: YTFGSNQHGQLGTNTRRGSRAPCK

Variants of: B1
Experiment: protein stability index of a GFP-peptide fusion (GPS, HEK-293T) (PSI 1-6); higher = more stable
Details: c terminus: a fixed tail appended
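Further: lentivirally expressed fusions sorted by FACS into six bins by GFP to DsRed ratio, PSI derived from sequencing read proportions per bin multiplied by bin number.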

Protein stability index, by site and new letter:
G4: T 3.54, R 4.36, V 4.2, F 3.64, L 3.99, N 3.82, C 2.91, Y 3.42, Q 4.04, A 3.44, K 3.6, S 3.66, W 2.91, E 4.33, M 3.44, P 4.19, I 3.72, H 3.91, D 4.39
S5: F 2.23, A 3.63, H 3.66, C 3.72, V 4.09, L 3.62, N 4.14, I 3.44, K 3.5, M 4.11, R 3.96, Y 2.49, W 2.67, G 3.86, Q 4.01, T 4.36, E 4.61, P 3.84, D 4.53
T13: D 4.44, R 4.11, M 3.72, G 4.43, Q 4.35, N 4.06, W 3.22, E 4.37, S 4.3, I 3.15, C 3.13, A 4.44, L 3.58, F 3.31, P 4.45, Y 3.62, H 4.35, K 3.79, V 3.67
Q7: R 3.81, G 4.07, T 4.28, E 4.2, Y 3.09, S 3.58, A 3.55, W 2.73, D 3.98, V 3.84, L 2.28, C 3.59, I 3.45, F 1.54, N 4.06, M 3.66, H 3.84, P 3.81, K 3.8
G9: K 4.12, F 2.1, P 3.38, M 3.19, Q 3.94, E 3.98, A 3.39, Y 2.23, S 4.15, R 3.94, I 3.05, W 2.16, H 4.16, V 2.78, T 3.82, D 4.11, L 3.19, C 3.48, N 3.98
T2: W 3.32, R 4.75, M 4.5, Q 3.5, P 4.18, N 4.61, Y 4.24, V 2.36, S 4.31
L11: S 4.94, R 4.65, K 3.56, P 4.22, Q 4.49, F 3.76, E 4.53, G 4.53, Y 3.95, D 4.49, M 4.01, I 3.93, C 4.02, V 4.1, W 3.22, A 4.38, H 4.23, T 4.43, N 4.3
T15: E 4.17, Q 4.25, K 3.94, W 3.49, S 4.28, H 4.05, L 3.7, N 3.82, V 4.17, F 3.56, D 3.85, C 3.56, G 3.77, Y 3.67, R 3.98, I 4.14, M 4.09, P 3.6, A 3.9
H8: Q 3.92, R 3.92, I 3.48, W 2.36, E 4.47, G 3.61, F 3.23, P 3.97, V 4.01, K 4, L 3.37, A 3.98, Y 3.36, S 3.77, C 3.94, T 3.87, N 3.99, M 3.75, D 4.15
G12: S 3.97, D 4.68, Q 3.93, H 4.37, M 3.84, V 4.11, L 4.15, T 4.32, K 3.98, Y 3.83, F 3.09, E 4.19, C 3.71, R 4.11, W 2.73, N 4.18, P 4.43, I 3.79, A 4.36
S19: M 4.05, Y 3.52, K 3.77, N 3.86, Q 4.02, L 3.82, P 3.89, R 3.91, F 3.03, T 3.81, H 3.95, A 3.95, G 3.91, C 3.08, V 3.77, W 2.8, E 3.72, D 4.18, I 3.33
R16: T 4.21, N 4.02, F 2.57, G 4.24, L 3.82, K 3.67, D 4.05, A 3.81, M 3.63, S 3.85, I 3.56, P 3.94, W 1.8, V 3.99, H 4.25, C 3.36, Q 3.97, Y 3.37, E 3.63
G18: K 4.05, S 3.43, R 3.95, N 3.81, P 3.53, D 3.94, W 3.23, V 3.46, C 3.48, F 2.85, E 3.69, I 3.61, A 3.33, Q 3.27, T 4.08, Y 3.26, L 3.77, H 3.52, M 3.47
R17: A 3.46, E 4.07, Q 4.02, P 3.75, D 3.84, L 3.92, V 3.66, K 3.73, I 3.51, M 3.88, S 3.81, H 3.94, T 3.65, C 3.07, F 3.18, Y 3.5, G 4.09, N 3.97
N6: F 2.61, E 4.44, W 3.06, A 3.94, C 3.78, D 4.24, S 3.86, Y 3.48, H 3.75, I 3.6, G 3.52, K 3.44, L 3.29, M 3.44, Q 4.21, R 4.18, V 3.75, T 3.54, P 4.07
R20: A 4.07, D 3.81, C 3.33
Q10: P 4, D 4.45, Y 3.52, A 4.21, S 3.58, C 3.36, F 3.33, N 3.83, V 3.31, E 4.33, R 3.82, M 3.58, L 3.36, H 3.89, K 3.41, W 1.52, G 4.08, I 3.47, T 4.32
F3: D 4.11, R 3.92, C 3.58, Q 3.69, N 3.95, S 3.2, H 3.94, Y 3.54, M 4.13, L 3.99, G 2.29, V 3.98, T 3.77, P 2.02, E 4.32, I 3.89, W 2.06, K 4.32, A 3.31
N14: E 3.69, D 4.35, S 3.88, G 3.49, C 2.29, R 3.88, V 2.06, Q 3.69, L 3.51, M 3.44, K 3.88, H 4.07, P 3.77, F 3.71, A 3.38, T 2.98, I 2.73, Y 3.63, W 3.21
